Experimental findings from publication PMC11261967, “The retrotransposon-derived capsid genes PNMA1 and PNMA4 maintain reproductive capacity” (Research Square, 2024) are described below.

This data set concerns the molecule itself. In words: SEC + other: negative stain transmission electron microscopy; Ni-purified His-tagged protein run over Superose 6 Increase HiScale (80 ml); void (high molecular weight) fractions visualised by negative stain TEM (2% uranyl acetate), 2D classes in cryoSPARC; self-assembly into capsid-like particles.

B1: recombinant mouse PNMA4, His-tagged (natural protein, UniProt Q9ERH6 1-352, looked up)
chain: MTLRLLEDWCRGMDMNPRKALLVAGIPPTCGVADIEEALQAGLAPLGEHRLLGRMFRRDENKNVALIGLTVETGSALVPKEIPAKGGVWRVIFKPPDTDSDFLCRLNEFLKGEGMTMGELTRVLGNRNDPLGLDPGIMIPEIRAPMLAQALNEALKPTLQYLRYKKLSVFSGRDPPGPGEEEFESWMFHTSQVMKTWQVSDVEKRRRLIESLRGPAFEIIRVLKINNPFITVAECLKTLETIFGIIDNPRALQVKYLTTYQKTDEKLSAYVLRLEPLLQKLVQKGAIEKEVVNQARLDQVIAGAVHKSVRRELGLPEGSPAPGLLQLLTLIKDKEAEEEEVLLQAELEGYCT
notes: PNMA4 (also called MOAP-1 or MAP-1), mouse, full-length Pnma4 cloned into the first cassette of a modified pET-Duet plasmid; The modified pET-Duet encodes a C-terminal 3C protease cut site followed by the His tag; no cleavage is described; also called MOAP-1; MAP-1; source: E. coli LOBSTR (RIL plasmid), purified (Ni-Sepharose, Superose 6 size exclusion; void fractions collected); not shown: His …
With B1, the binding result is recorded as “binds”.

B2: recombinant mouse PNMA1, His-tagged (natural protein, UniProt Q8C1C8 1-353, looked up)
chain: MAMTLLEDWCRGMDVNSQRALLVWGIPVNCDETEIEETLQAAMPQVSYRVLGRMFWREENAKAALLELTGAVDYSLIPREMPGKGGLWKVVFKPPTSDAVFLERLHLFLAREGWTVQDVARVLGFQNPAPAPGPEMPAEMLNYILDNVIQPLVESIWYKKLTLFSGKDIPGPGEETFDSWLEHSNEIIEEWQVSDIEKRRRLMESLRGPAADVIRILKTNNAAITTAECLKALEQVFGSVESSRDAQVRFLNTYQNPGEKLSSYVIRLEPLLQKVVDKGVIDKDNVNQARLEQVIAGANHSGALRRQLWLAGAEEGPAPNLFQLLVQIREEEAKKEEEEAEAALLQLGLEGHF
notes: PNMA1, mouse, full-length Pnma1 cloned into the first cassette of a modified pET-Duet plasmid; The modified pET-Duet encodes a C-terminal 3C protease cut site followed by the His tag; no cleavage is described; source: E. coli LOBSTR (RIL plasmid), purified (Ni-Sepharose, Superose 6 size exclusion; void fractions collected); not shown: His tag, C-terminal, kept
B2: the binding result was “binds”.
